Laboratory results reported in the supplement of paper PMC7125110.
± gives the standard error. For some of these results: Fewer inactive variants are shown than the library holds.

B1: glmS ribozyme (parent)
chain: AUAAAAGCGCCAGAACUACAGAAAUGUAGUUGACGAGGAGGAGGUUUAUCGAAUUUUCGGCGGAUGCCUCCAAA

What was measured:
Conditions in all cases: with glucosamine-6-phosphate
glucosamine-6-phosphate [1] = variants of: B1; test: kcat; higher = faster cleavage; RNA array
Method in brief: (§1)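 kobs was derived by fitting per-tile medians to one- or two-exponential decays after normalising signals to baseline and to non-cleaving reference variants. Those signals came from barcoded ribozyme variants transcribed in situ by E. coli RNA polymerase on sequenced MiSeq chips, followed through a hybridised Cy3 probe at 37 °C and imaged over ~14 h. Glucosamine-6-phosphate (40 μM to 10 mM) in HEPES/KCl/Mg(OAc)2 buffer was flowed in. Weighted Michaelis–Menten fits across concentrations then gave kcat and KM.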

glucosamine-6-phosphate [2] = variants of: B1; test: KM; higher = weaker cofactor use; RNA array
Method in brief: as §1

glucosamine-6-phosphate [3] = variants of: B1; test: self-cleavage kobs at 640 uM GlcN6P; higher = faster cleavage; RNA array
Method in brief: as §1

glucosamine-6-phosphate [4] = variants of: B1; test: self-cleavage kobs at 2500 uM GlcN6P; higher = faster cleavage; RNA array
Method in brief: as §1

glucosamine-6-phosphate [5] = variants of: B1; test: self-cleavage kobs at 10000 uM GlcN6P; higher = faster cleavage; RNA array
Method in brief: as §1

glucosamine-6-phosphate [6] = variants of: B1; test: self-cleavage kobs at 40 uM GlcN6P; higher = faster cleavage; RNA array
Method in brief: as §1

glucosamine-6-phosphate [7] = variants of: B1; test: self-cleavage kobs at 160 uM GlcN6P; higher = faster cleavage; RNA array
Method in brief: as §1

Row | Variant | kcat (glucosamine-6-phosphate [1]) [s⁻¹] | KM (glucosamine-6-phosphate [2]) [µM] | self-cleavage kobs at 640 uM GlcN6P (glucosamine-6-phosphate [3]) [s⁻¹] | self-cleavage kobs at 2500 uM GlcN6P (glucosamine-6-phosphate [4]) [s⁻¹] | self-cleavage kobs at 10000 uM GlcN6P (glucosamine-6-phosphate [5]) [s⁻¹] | self-cleavage kobs at 40 uM GlcN6P (glucosamine-6-phosphate [6]) [s⁻¹] | self-cleavage kobs at 160 uM GlcN6P (glucosamine-6-phosphate [7]) [s⁻¹]
1 | A15G C34G C68A | 2.44e-05 ± 5.8e-06 |  |  |  |  |  | 
2 | A15C U30C A52G G63C | < 1e-05 |  |  |  |  |  | 
3 | A15C C58A | 0.000185 ± 2.6e-05 | 2130 ± 720 | 5.17e-05 ± 1.2e-05 | 8.54e-05 ± 1.6e-05 | 0.00016 ± 2.1e-05 |  | 
4 | A14C U31C | 0.00408 ± 0.0011 | 2330 ± 860 | 0.000748 ± 9e-05 | 0.00178 ± 0.00024 | 0.00399 ± 0.00045 | 8.42e-05 ± 1.1e-05 | 0.000307 ± 4.3e-05
5 | A15G C16U | 0.00689 ± 0.0016 | 876 ± 320 | 0.00277 ± 0.00047 | 0.00432 ± 0.00071 | 0.00798 ± 0.0011 | 0.000403 ± 5.8e-05 | 0.000875 ± 0.00017
6 | A15G U31G A39U | 0.00331 ± 0.0014 |  | 0.000575 ± 0.00013 | 0.000869 ± 0.00014 | 0.00265 ± 0.00042 | 3.3e-05 ± 1.1e-05 | 0.000104 ± 1.8e-05
7 | A15G G29U C50G | 3.72e-05 ± 6.3e-06 |  |  | 5.06e-05 ± 2.4e-05 |  |  | 
8 | A15C G29U | 0.00341 ± 0.00015 | 2200 ± 140 | 0.000757 ± 0.00012 | 0.00169 ± 0.00042 | 0.00285 ± 0.00042 | 6.18e-05 ± 8.8e-06 | 
9 | A14U A52U | 0.000167 ± 2.7e-06 | 2930 ± 110 | 3.02e-05 ± 7.3e-06 | 7.62e-05 ± 7.8e-06 | 0.000129 ± 1e-05 |  | 
10 | A14U A52G | 0.00038 ± 0.0001 | 2840 ± 1300 | 7.16e-05 ± 1e-05 | 0.000166 ± 1.6e-05 | 0.000325 ± 4.4e-05 |  | 5.44e-05 ± 1.7e-05
11 | A15G C58G | 0.00042 ± 0.00013 |  |  | 8.41e-05 ± 1.3e-05 | 0.000197 ± 6.1e-05 |  | 
12 | A14U G35U | < 1e-05 |  |  | < 1e-05 |  |  | < 1e-05
13 | A14G G37U | 2.35e-05 ± 1.3e-06 | 1680 ± 470 |  |  | 2.02e-05 ± 1e-05 | < 1e-05 | 
14 | A14G G37C | 0.000101 ± 3.2e-05 |  | 5.36e-05 ± 1.6e-05 | 4.49e-05 ± 9e-06 | 8.64e-05 ± 9.6e-06 |  | 
15 | A14G U56G | 0.0818 ± 0.014 | 1560 ± 320 | 0.0223 ± 0.0035 | 0.0673 ± 0.027 | 0.0704 ± 0.02 | 0.00201 ± 0.00033 | 0.0087 ± 0.0018
16 | A14U A15G G43A | 1.46e-05 ± 6.9e-06 |  |  |  |  |  | 

Row | Variant | kcat (glucosamine-6-phosphate [1]) [s⁻¹] | KM (glucosamine-6-phosphate [2]) [µM] | self-cleavage kobs at 640 uM GlcN6P (glucosamine-6-phosphate [3]) [s⁻¹] | self-cleavage kobs at 2500 uM GlcN6P (glucosamine-6-phosphate [4]) [s⁻¹] | self-cleavage kobs at 10000 uM GlcN6P (glucosamine-6-phosphate [5]) [s⁻¹] | self-cleavage kobs at 40 uM GlcN6P (glucosamine-6-phosphate [6]) [s⁻¹] | self-cleavage kobs at 160 uM GlcN6P (glucosamine-6-phosphate [7]) [s⁻¹]
17 | A15G C16A C70U | 0.000398 ± 6.7e-05 | 804 ± 260 | 0.000168 ± 2.9e-05 | 0.000315 ± 6.5e-05 |  |  | 6.78e-05 ± 2.4e-05
18 | A15C U54G | 0.00559 ± 0.0011 | 2690 ± 780 | 0.000903 ± 0.00029 | 0.00205 ± 0.00055 | 0.00475 ± 0.0006 | 0.000104 ± 1.6e-05 | 0.000285 ± 5.1e-05
19 | A15C U46A | 0.000358 ± 0.00016 |  | 0.000102 ± 2.1e-05 | 0.000152 ± 3.8e-05 | 0.000416 ± 9.4e-05 |  | 
20 | A15C U46C | 0.000304 ± 5.3e-05 | 1330 ± 520 | 0.000119 ± 1.9e-05 | 0.000176 ± 2.5e-05 | 0.000295 ± 4.8e-05 |  | 
21 | A15G G29U | 0.00177 ± 0.00076 |  | 0.000265 ± 0.0001 | 0.00118 ± 0.00039 | 0.00145 ± 0.00039 | 6.06e-05 ± 1.7e-05 | 0.000104 ± 4.4e-05
22 | A15G U65A C71A | 0.000944 ± 0.0002 | 755 ± 320 | 0.000466 ± 5.6e-05 | 0.000535 ± 0.00018 | 0.000965 ± 0.00023 | 3.84e-05 ± 1.7e-05 | 
23 | A15G G62C U69G | 1.74e-05 ± 5.1e-06 |  |  |  |  |  | 
24 | A15C U65G | 0.00172 ± 0.00056 | 4120 ± 1900 | 0.000252 ± 3.6e-05 | 0.000818 ± 0.00012 | 0.00111 ± 0.00017 | 3.62e-05 ± 1.3e-05 | 4.69e-05 ± 1.1e-05
25 | A15C C71G | 0.000307 ± 5.8e-05 | 1010 ± 390 | 0.00011 ± 1.2e-05 | 0.000299 ± 3.9e-05 | 0.00025 ± 3.6e-05 |  | 4.96e-05 ± 1.3e-05
26 | A14G A36G | 4.89e-05 ± 6.4e-07 | 854 ± 82 |  | 3.69e-05 ± 1.2e-05 | 4.49e-05 ± 6.3e-06 |  | 
27 | A14G A48G | 0.000249 ± 3.2e-05 | 648 ± 220 | 0.000128 ± 1.4e-05 | 0.000232 ± 2.6e-05 | 0.000203 ± 2.9e-05 |  | 3.64e-05 ± 1.4e-05
28 | A14G A48U | 0.00132 ± 0.00027 | 2320 ± 780 | 0.000335 ± 5.6e-05 | 0.000889 ± 0.00016 | 0.000999 ± 0.00013 | 3.34e-05 ± 1.3e-05 | 6.56e-05 ± 1.5e-05
29 | A15G A64U | 0.000233 ± 2.7e-05 | 3870 ± 820 | 3.22e-05 ± 9e-06 | 9.11e-05 ± 1.2e-05 | 0.000169 ± 2.4e-05 |  | 
30 | A14U U46G | 0.0012 ± 0.00012 | 2150 ± 380 | 0.000293 ± 4.6e-05 | 0.000548 ± 0.0001 | 0.00104 ± 0.00012 | 1.98e-05 ± 6.9e-06 | 9.07e-05 ± 2.1e-05
31 | A14U U54C C67U | 0.00203 ± 0.00034 | 1680 ± 410 | 0.000887 ± 0.00023 | 0.00131 ± 0.00025 | 0.00163 ± 0.0003 | 5.21e-05 ± 1.9e-05 | 0.000164 ± 2.3e-05
